Article PMC11856660 (PLOS Pathogens, 2025)

Target: HCoV-229E nsp15 protein, H250A mutant (recombinant, hexameric) (human coronavirus 229E (HCoV-229E))
Assay: […] (25 mM HEPES pH 8, 300 mM NaCl, 10% glycerol, 1 mM TCEP); […]; 20 °C; […]

How did the percent hexameric turn out when “HCoV-229E nsp15 protein, H250A mutant (recombinant, hexameric) (enzyme)” was run?
The percent hexameric was greater than 98%.

And the stoichiometry N?
Its stoichiometry N is 6.
